# Laboratory results published in patent US20190177419A1 (BERGEN TEKNOLOGIOVERFORING, published 2019).
# T1: recombinant human Tyro3/Dtk-Fc chimera (R&D Systems, Cat. no. 859-DK) (human, UniProt Q06418 41-429)
# T1 construct: Bought reagent; also called rhTyro3/Dtk-Fc; rhTyro3; not shown: Fc part (and any linker or tag) of the bought chimera; not described
# T1 sequence: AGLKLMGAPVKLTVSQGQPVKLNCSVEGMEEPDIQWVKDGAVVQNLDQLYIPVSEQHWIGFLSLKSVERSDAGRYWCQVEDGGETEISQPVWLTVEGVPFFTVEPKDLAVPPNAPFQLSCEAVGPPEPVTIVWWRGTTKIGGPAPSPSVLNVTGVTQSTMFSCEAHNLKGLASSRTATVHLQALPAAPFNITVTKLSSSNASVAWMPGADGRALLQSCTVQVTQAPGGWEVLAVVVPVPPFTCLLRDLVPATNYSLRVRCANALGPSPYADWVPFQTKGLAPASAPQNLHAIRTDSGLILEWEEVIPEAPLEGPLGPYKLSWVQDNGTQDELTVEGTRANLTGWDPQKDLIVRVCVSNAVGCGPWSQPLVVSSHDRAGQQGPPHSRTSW
# T2: recombinant human Mer-Fc chimera (R&D Systems, Cat. no. 891-MR) (human, UniProt Q12866 21-505)
# T2 construct: Bought reagent; also called rhMer-Fc; rhMer; not shown: Fc part (and any linker or tag) of the bought chimera; not described
# T2 sequence: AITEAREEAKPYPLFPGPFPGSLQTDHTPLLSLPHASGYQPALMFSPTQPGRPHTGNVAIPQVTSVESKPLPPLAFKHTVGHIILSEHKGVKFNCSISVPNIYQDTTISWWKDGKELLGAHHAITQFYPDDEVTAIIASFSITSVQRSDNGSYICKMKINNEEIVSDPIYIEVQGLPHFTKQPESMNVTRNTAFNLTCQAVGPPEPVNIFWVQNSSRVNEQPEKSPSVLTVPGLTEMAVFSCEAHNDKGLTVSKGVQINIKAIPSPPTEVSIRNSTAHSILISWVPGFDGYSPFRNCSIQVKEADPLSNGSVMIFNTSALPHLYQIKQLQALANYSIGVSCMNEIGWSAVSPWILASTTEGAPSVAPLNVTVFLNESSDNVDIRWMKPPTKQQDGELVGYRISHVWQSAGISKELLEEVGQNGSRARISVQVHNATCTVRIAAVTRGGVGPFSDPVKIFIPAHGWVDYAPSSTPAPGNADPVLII
# T3: recombinant cyno-Axl-Fc (extracellular domain of cynomolgus monkey Axl fused to human Fc) (cynomolgus monkey (Macaca fascicularis), UniProt P30530 26-451 (human entry))
# T3 construct: also called Axl from cynomolgus monkey; not shown: human Fc
# T3 chain: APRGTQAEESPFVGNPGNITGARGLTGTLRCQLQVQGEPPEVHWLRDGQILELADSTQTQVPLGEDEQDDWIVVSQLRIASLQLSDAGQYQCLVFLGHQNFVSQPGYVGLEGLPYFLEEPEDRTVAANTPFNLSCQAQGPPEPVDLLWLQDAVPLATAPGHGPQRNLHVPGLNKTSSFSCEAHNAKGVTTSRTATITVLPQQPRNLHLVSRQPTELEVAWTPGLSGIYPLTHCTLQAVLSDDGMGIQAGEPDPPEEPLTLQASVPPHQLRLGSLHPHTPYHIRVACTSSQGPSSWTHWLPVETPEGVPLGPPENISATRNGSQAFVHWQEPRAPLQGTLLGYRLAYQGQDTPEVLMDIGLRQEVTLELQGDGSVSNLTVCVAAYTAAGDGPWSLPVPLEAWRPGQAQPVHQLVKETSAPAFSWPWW
# How the values were obtained:
# [1] = target: T1, recombinant human Tyro3/Dtk-Fc chimera …; experiment: SPR (Biacore 3000), rhTyro3/Dtk-Fc immobilised on a CM5 chip, antibody injected for 3 min [panel 10C9]
# Procedure: (§1) All binding experiments were performed using Biacore 3000 instrument (GE Healthcare) at 25° C. Soluble recombinant antigens corresponding to the extracellular domains of members of the human TAM receptor family, Axl (rhAxl-Fc chimera; R&D Systems, Cat. no. 154-AL), Mer (rhMer-Fc chimera; R&D Systems, Cat. no. 891-MR) and Tyro3 (rhTyro3/Dtk-Fc chimera; R&D Systems, Cat. no. 859-DK) were immobilized on the surface of CM5 sensor chip using amine coupling at the surface density of 393.0, 303.6 and 364.0 resonance units (RU), respectively. The Biacore run was performed in an automatic mode using Binding to analysis wizard.
# [2] = target: T4, recombinant human Axl-Fc chimera (R&D Systems, Cat. no. 154-AL) (human, UniProt P30530 26-451); experiment: SPR, Biacore 3000, 25 C, rhAxl-Fc immobilised on CM5 (190 RU), antibody injected, 1:1 Langmuir model
# T4 construct: extracellular domain; Bought reagent; also called rhAxl-Fc; rhAxl; not shown: Fc part (and any linker or tag) of the bought chimera; not described
# Procedure: (§2) The precise kinetic analysis was performed using BIA evaluation software and curve fitting according to 1:1 Langmuir binding model.
# [3] = target: T5, recombinant mouse Axl-Fc chimera (R&D Systems, Cat. no. 854-AX) (mouse, UniProt Q00993 19-445); experiment: SPR (Biacore 3000), rmAxl-Fc immobilised on a CM5 chip, antibody injected for 3 min [panel 10C9]
# T5 construct: Bought soluble reagent; also called rmAxl-Fc; rmAxl; not shown: Fc part (and any linker or tag) of the bought chimera; not described
# T5 sequence (Q00993 other isoform, or with tags, fused parts or gaps mutant): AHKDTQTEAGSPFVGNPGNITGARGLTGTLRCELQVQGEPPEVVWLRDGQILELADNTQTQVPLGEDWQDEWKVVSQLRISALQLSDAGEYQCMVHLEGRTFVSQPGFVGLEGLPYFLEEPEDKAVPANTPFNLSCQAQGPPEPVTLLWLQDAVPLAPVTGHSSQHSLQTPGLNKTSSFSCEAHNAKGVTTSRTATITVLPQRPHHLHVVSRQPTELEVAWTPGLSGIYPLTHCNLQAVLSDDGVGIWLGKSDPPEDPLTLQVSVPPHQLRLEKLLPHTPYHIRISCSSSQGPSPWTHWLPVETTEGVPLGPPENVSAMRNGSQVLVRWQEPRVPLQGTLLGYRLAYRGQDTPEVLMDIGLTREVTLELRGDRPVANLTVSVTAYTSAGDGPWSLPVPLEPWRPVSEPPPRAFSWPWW
# Procedure: (§3) The binding experiments were performed using Biacore 3000 instrument (GE Healthcare) at 25° C. The soluble recombinant antigens corresponding to human Axl (rhAxl-Fc chimera; R&D Systems, Cat. no. 154-AL), mouse Axl (rmAxl-Fc chimera; R&D Systems, R&D Systems; Cat. no. 854-AX) and human Tyro3 (rhTyro3/Dtk-Fc chimera; R&D Systems, Cat. no. 859-DK) were immobilized on the surface of CM5 sensor chip using amine coupling at the surface density of 1,308.0, 2,115.9 and 1,429.0 RU, respectively. The Biacore runs were performed in an automatic mode using Binding analysis wizard.
# [4] = target: T6, human Axl receptor on cells (Axl-positive MDA-MB-231 cells; HeLa cells; Axl+ cells) (human, UniProt P30530 26-894); experiment: flow cytometry on MDA-MB-231 cells, detection with APC-conjugated donkey anti-mouse IgG (H+L) F(ab')2
# T6 construct: whole, on cells; Endogenous Axl of human cell lines; also called Axl-positive cells
# [5] = target: T2, recombinant human Mer-Fc chimera (R&D …); experiment: SPR (Biacore 3000), rhMer-Fc immobilised on a CM5 chip, antibody injected for 3 min [panel 10C9]
# Procedure: as §1
# [6] = target: T4, recombinant human Axl-Fc chimera (R&D …); experiment: SPR, Biacore 3000, 25 C, rhAxl-Fc immobilised on CM5 (190 RU); half-life of the complex as ln2/koff
# Procedure: as §2
# [7] = target: T3, recombinant cyno-Axl-Fc (extracellular …); experiment: SPR (Biacore 3000), cyno-Axl-Fc immobilised on a CM5 chip, antibody injected at 10 µg/mL for 3 min, 5 min dissociation [panel 10C9]
# Procedure: (§4) The sequence of Axl receptor from cynomolgus monkey (Macace fascicularis; SEQ ID NO.43) was retrieved from WO2009062690A1. Based on the sequence, recombinant extracellular domain of cyno-Axl was generated by transient expression in CHO cells as a fusion protein with human Fc. […] The binding experiments were performed using Biacore 3000 instrument (GE Healthcare) at 25° C. […] The Biacore runs were performed in an automatic mode using Binding analysis wizard.
# [8] = target: T6, human Axl receptor on cells …; experiment: flow cytometry on MDA-MB-231 cells, detection with APC-conjugated donkey anti-human IgG (H+L) F(ab')2
# Procedure: The cell staining was measured using Accuri C6 flow cytometer (BD Biosciences). MFI, geometric mean fluorescence intensity.
# For flow cytometry, the adherent cells in culture were washed with PBS, detached by treatment with trypsin (0.25%) for 1 min and hitting culture dish for full detachment. Trypsin was quenched by adding into the tissue flask the complete medium followed by washing the cells with PBS. During the washing steps, the cells were collected by centrifugation at 200 g for 5 min. The antibody was diluted for total concentration in PBS containing 0.02% bovine serum albumin (BSA). Cell staining was performed using 200 μL of cell suspension comprising 10⁵ cells for 20 min at room temperature. The cell-bound antibodies were detected with APC-conjugated donkey anti-human or anti-mouse, respectively, IgG (H+L) F(ab′)₂ fragments (Jackson ImmunoResearch). After two washing steps with PBS/0.02% BSA, the cells were resuspended in 200 μL and kept on ice before analysis on Accuri C6 flow cytometer (BD Biosciences).
# [9] = target: T2, recombinant human Mer-Fc chimera (R&D …); experiment: SPR (Biacore 3000), rhMer-Fc immobilised on a CM5 chip, antibody injected for 3 min [panel 10G5]
# Procedure: as §1
# [10] = target: T5, recombinant mouse Axl-Fc chimera (R&D …); experiment: SPR (Biacore 3000), rmAxl-Fc immobilised on a CM5 chip, antibody injected for 3 min [panel 10G5]
# Procedure: as §3
# [11] = target: T1, recombinant human Tyro3/Dtk-Fc chimera …; experiment: SPR (Biacore 3000), rhTyro3/Dtk-Fc immobilised on a CM5 chip, antibody injected for 3 min [panel 10G5]
# Procedure: as §1
# [12] = target: T3, recombinant cyno-Axl-Fc (extracellular …); experiment: SPR (Biacore 3000), cyno-Axl-Fc immobilised on a CM5 chip, antibody injected at 10 µg/mL for 3 min, 5 min dissociation [panel 10G5]
# Procedure: as §4
binder,measurement,setting,value
"mouse monoclonal antibody 10C9 (from hybridoma UT-10C9-B9) (antibody, IgG2b, V domains shown, Whole mouse antibody purified from hybridoma supernatant; Possible N-glycosylation site (NFT) in CDR-H1; also called MAb 10C9) VH: QVQLQQPGPELVKPGASVKISCKTSDYNFTRYYIHWVKQRPGQGLEWIGWIYPGTGDSKYNEKFKGRATLTADTSSSTAYMQLSSQTSEDSAVYFCARNGNYWYFDVWGAGTAVTVSS VL: DIVMTQAAPSGPVTPGESVSISCRSSKSLLHSNGNTYLYWFLQRPGQSPQLLIYRMSNLASGVPDRFSGSGSGTAFTLRISRVEAEDVGIYYCMQHREYPFTFGGGTKLEIK",binding result,[1],no binding (tested: 10 µg/mL)
same,Kd,[2],0.18 nM
same,koff,[2],0.000289 s⁻¹
same,kon,[2],1.61e+06 M⁻¹ s⁻¹
same,binding result,[3],no binding (tested: 10 µg/mL)
same,EC50 (read off the curve),[4],~0.2 nM
same,binding result,[5],no binding (tested: 10 µg/mL)
same,Half-life (t1/2),[6],40 min
same,binding result,[7],binds
"chimeric (mouse variable/human constant) IgG1 antibody c10C9 (antibody, V domains shown, 10C9 VH and VL joined in frame to human IgG1 and C-kappa constant domains, made in CHO cells; also called chimeric 10C9; not shown: constant domains of the human IgG1 heavy chain; constant domain of the human light (C-kappa) chain) VH: QVQLQQPGPELVKPGASVKISCKTSDYNFTRYYIHWVKQRPGQGLEWIGWIYPGTGDSKYNEKFKGRATLTADTSSSTAYMQLSSQTSEDSAVYFCARNGNYWYFDVWGAGTAVTVSS VL: DIVMTQAAPSGPVTPGESVSISCRSSKSLLHSNGNTYLYWFLQRPGQSPQLLIYRMSNLASGVPDRFSGSGSGTAFTLRISRVEAEDVGIYYCMQHREYPFTFGGGTKLEIK",EC50 (read off the curve),[8],~0.2 nM
same,Kd,[2],0.102 nM
same,koff,[2],0.000219 s⁻¹
same,kon,[2],2.16e+06 M⁻¹ s⁻¹
same,Half-life (t1/2),[6],52.8 min
"mouse monoclonal antibody 10G5 (from hybridoma WR-10G5-E5) (antibody, IgG1, V domains shown, Whole mouse antibody purified from hybridoma supernatant; also called MAb 10G5) VH: QVQLQQSGAELVRPGASVKLSCKASGYSFTDFYINWVRQRPGQGLEWIARIFPGGDNTYYNEKFKGKATLTAEESSSTAYIQLSSLTSEDSAVYFCARRGLYYAMDYWGQGISVTVSS VL: DVLMTQTPLSLPVSLGDQASISCRSSQSLVHSNGIPYLHWYLQKPGQSPKLLIYRVSNRFSGVPDRFSGSGSGTDFTLKISRVEAEDLGVYFCSQGTHVPPTFGGGTKLEIK",Kd,[2],0.53 nM
same,koff,[2],0.000439 s⁻¹
same,kon,[2],829000 M⁻¹ s⁻¹
same,binding result,[9],no binding (tested: 10 µg/mL)
same,binding result,[10],no binding (tested: 10 µg/mL)
same,binding result,[11],no binding (tested: 10 µg/mL)
same,Half-life (t1/2),[6],26.3 min
same,binding result,[12],binds
"chimeric (mouse variable/human constant) IgG1 antibody c10G5 (antibody, V domains shown, 10G5 VH and VL joined in frame to human IgG1 and C-kappa constant domains, made in CHO cells; also called chimeric 10G5; not shown: constant domains of the human IgG1 heavy chain; constant domain of the human light (C-kappa) chain) VH: QVQLQQSGAELVRPGASVKLSCKASGYSFTDFYINWVRQRPGQGLEWIARIFPGGDNTYYNEKFKGKATLTAEESSSTAYIQLSSLTSEDSAVYFCARRGLYYAMDYWGQGISVTVSS VL: DVLMTQTPLSLPVSLGDQASISCRSSQSLVHSNGIPYLHWYLQKPGQSPKLLIYRVSNRFSGVPDRFSGSGSGTDFTLKISRVEAEDLGVYFCSQGTHVPPTFGGGTKLEIK",EC50 (read off the curve),[8],~0.2 nM
same,Kd,[2],0.103 nM
same,koff,[2],0.000169 s⁻¹
same,kon,[2],1.64e+06 M⁻¹ s⁻¹
same,Half-life (t1/2),[6],68.4 min
